≈ marks a conversion by molar mass, not a printed value. Where a SMILES comes first, the peptide text is derived from it. Bridges are numbered along the chain shown (N, C = ends). [ ]: non-standard residue; d: D form. The star is where a group is joined. Ileψ(thiazoline)Cys = CC[C@H](C)[C@H](N)C1=N[C@H](C(=O)*)CS1; dOrn = NCCC[C@@H](N)C(=O)O
B1: EcXA082: antisense clone insert, E. coli genes hybC; hybB (nucleic acid, listed as Escherichia coli)
DNA: TGCTTTGCTCGCCTCATGACGATTATGATCGTTTTGTTTTAAAGGAGGAAGTATCGGCAGTAGACGAATGAGTACGATGTAAGCGCAAATCTCAATAGCCACAAAACCAATAGAAATCAACAGTTCTTCCCAGGTCGGGAAGTA
B2: EcXA104: antisense clone insert, E. coli gene hsdS (nucleic acid, listed as Escherichia coli)
DNA: GACGCGGCGAACGATTTCGGCTTGTTCTTTTACTGGAGGTAATAAAACAACTTGGGATTTGATATCTTTTCCTGAAATACCTTTTTGACCAGAAGTTGTTTTCACGCAGTTCATCATTGCATTTCGTGCTGAGGGGGATGAAAAAAATATTTCGATATATTCTGGTAAAGCATCTTT
B3: EcXA072: antisense clone insert, E. coli gene recJ (nucleic acid, listed as Escherichia coli)
DNA: GATTTTTACCGGATTAATTTTAAACATGGTCTGATTTCTTTTATTGAGCTAGTCAAAATGCGGTGATAAGAGCGGGATTGTCCCAATCCACGCTCTTTTTTATAGAGAAGATGACGCTAAATTGGCCAGATATTGTCGATGATAATTTG
B4: EcXA062: antisense clone insert, E. coli gene rep (nucleic acid, listed as Escherichia coli)
DNA: CGCGTGGAGAGTCATCAGTTGCACCTGATCCAGCTCTTCTTCACTCTCACCACGCTCNATCATGTCGCGCAAAGTAAAGCGCGTCACCACCTGGGTGAGCGTCATCGGCTCATCCAGTTCACTGCCTTCCAGCATCTCCGTCATCCAGCTAAACAGTTGGTTGACGTTCTTCATGCGCATTTCGGCGGCTTTCGGGCTGGGCGATGTTTCGTACAGCCAGGATTCATAATCCATGCCATGGATCAGATCACGCACCGCGGCAATCGGCTCCCGCTCCGCCAGACGCTGGATTTCTGCCAACCAGTGAGTGAAGCGGGTCAATGCTTCA
modifications: misc_feature (1)...(328): n = A,T,C or G
notes: antisense clone insert, E. coli gene rep
B5: EcXA059: antisense clone insert, portion of the ypjA gene of Escherichia coli (nucleic acid, listed as Escherichia coli)
DNA: NACCANGANTGGGACCCAAATGAAAATTGAACTGAAGATTACAATCAATTTAACANCAAGTTACACAACCAATTCAGACTCCGCCAGCCCACCAATCATGATTGGACGGTGTAAGGACAACACCAACAAAAACAGGAAGTTAGAAGTCTNAGCAAAACACCGACCAGACGGTGAGGAGACATAAAAGGATACGCAAAGGAGCCGCGGCTCCTGGTAACATGAAAGCCCACAGATGTGGGCTTTTTCGTTGATGGTCAGAACGACCAGTTCACACCAGCTACCGCGTTCCACGGGGATTCCACACCGGCACTATGGCTATACCCCACCCCAAGATGCCCGCTTAACGTACTGCTGAATGAGGCTTTAATACCTGCCTGGTATATTCCACGTCTGCCCGACAAATAATTGACGAAATTACCGNCACTATTCACTTTCACCCGGTTATCATCGACAAATTCTTTGCGCACAAGCCGNCTTCAGCCACGGNTCAACTTCCATACCGNTCCCCAGACGCATGTTGTAACTCAACGTTGCGCCCAGTTCACGATATATACTGCGGGTATCGACTGATTTCGATTTCATGCCATTGGATAAATGATATTCGGGGTTATCAGCGGTGAAACCCGTTNACGATGCATACNGGGTCAGGGTTCAATTACCATCGGTAAATCGCATTCCCGGTTTCAATGTGACCGCCAANCCCGTTGCTGTNGGTAACTGGCATTGGCGGGTTCANCGGTGGTAATTTTAACCTGGTACGNTACTTTTAAAACGGGTTAAGCTTTACCGAANACCGTNCANNATTGGAAACCCNCTTTTAATGGTTNCCCAACTNGGNN
modifications: misc_feature (1)...(839): n = A,T,C or G
notes: antisense clone insert, portion of the ypjA gene of Escherichia coli
B6: EcXA069: antisense clone insert, E. coli genes RplD; rplC (nucleic acid, listed as Escherichia coli)
DNA: TGAAATNCGACCGAAGGTAGTTTCGGAAACAGTCAGCGCGCTCTGCGCGTCTTTCAATACTAATTCCATTGCTATCTCCTTACGCCTTCACAGCTGGTTTAACGATCAGGTCGCTACCGGTTGCACCCGGGACAGCACCTTTAACCAGCAGCAGGT
modifications: misc_feature (1)...(156): n = A,T,C or G
notes: antisense clone insert, E. coli genes RplD; rplC

Tested on: E. coli
Test: Inhibition of E. coli proliferation after IPTG induction of antisense clones (liquid growth curves, dilution spotting on plates)
Format: cell-based, Escherichia coli
Conditions: 1 mM IPTG
Experimental: (§1) To study the effects of transcriptional induction in liquid medium, growth curves were carried out by back diluting cultures 1:200 into fresh media with or without 1 mM IPTG and measuring the OD450 every 30 minutes (min). To study the effects of transcriptional induction on solid medium, 10^2, 10^3, 10^4, 10^5, 10^6, 10^7 and 10^8 fold dilutions of overnight cultures were prepared. Aliquots of from 0.5 to 3 μl of these dilutions were spotted on selective agar plates with or without 1 mM IPTG. After overnight incubation, the plates were compared to assess the sensitivity of the clones to IPTG.
(§2) Molecule No. EcXA059, encoding a portion of the ypjA gene of Escherichia coli, was either transformed directly into Enterobacter cloacae, Salmonella typhimurium and/or Klebsiella pneumoniae or subdloned into an expression vector functional in these species and the subclones transformed into these organisms. Suitable expression vectors are well known in the art. These expression vectors were introduced into Enterobacter cloacae, Salmonella typhimurium and/or Klebsiella pneumoniae cells that were then assayed for growth inhibition according to the method of Example 1. After growth in liquid culture, cells were plated at various serial dilutions and a score determined by calculating the log difference in growth for INDUCED vs. UNINDUCED antisense RNA expression as determined by the maximum 10 fold dilution at which a colony was observed. If there was no effect of antisense RNA expression in one organism, the clone is given a score of zero “0” in that organism. In contrast, a score of “8” means that 10^8 times more cells were required to observe a colony formed on the induced state than in the non-induced state under the conditions used and in that organism.

Molecule	effect of antisense expression on E. coli growth after IPTG induction
B1	reduction in cell growth
B2	reduction in cell growth
B3	reduction in cell growth
B4	reduction in cell growth

Same assay, conditions: Escherichia coli; IPTG induction; maximum 10 fold dilution at which a colony was observed

Molecule	score: log difference in growth for INDUCED vs. UNINDUCED antisense RNA expression
B5	8

Tested on: Enterobacter cloacae
Test: Growth inhibition by IPTG-induced antisense RNA expression in Enterobacter cloacae (induced vs. uninduced serial dilution plating)
Format: cell-based
Conditions: not given
Experimental: as §1, §2
(§3) Expression vectors which inhibited growth of E. coli upon induction of antisense RNA expression with IPTG were transformed directly into Enterobacter cloacae, Klebsiella pneumonia or Salmonella typhimurium. The transformed cells were then assayed for growth inhibition according to the method of Example 1. After growth in liquid culture, cells were plated at various serial dilutions and a score determined by calculating the log difference in growth for INDUCED vs. UNINDUCED antisense RNA expression as determined by the maximum 10 fold dilution at which a colony was observed. If there was no effect of antisense RNA expression in a microorganism, the clone is minus in Table V below. In contrast, a positive in Table V below means that at least 10 fold more cells were required to observe a colony on the induced plate than on the non-induced plate under the conditions used and in that microorganism.

Molecule	Sensitivity of E. cloacae to antisense nucleic acid (growth inhibition, induced vs. uninduced)
B3	−
B6	+ (a positive in Table V below means that at least 10 fold more cells were required to observe a colony on the induced plate than on the non-induced plate)
B4	−

Tested on: Salmonella typhimurium
Test: Growth inhibition by IPTG-induced antisense RNA expression in Salmonella typhimurium (induced vs. uninduced serial dilution plating)
Format: cell-based
Conditions: not given
Experimental: as §1, §2, §3

Molecule	Sensitivity of S. typhimurium to antisense nucleic acid (growth inhibition, induced vs. uninduced)
B1	−
B6	−
B4	−

Tested on: Klebsiella pneumoniae
Test: Growth inhibition by IPTG-induced antisense RNA expression in Klebsiella pneumoniae (induced vs. uninduced serial dilution plating)
Format: cell-based
Conditions: not given
Experimental: as §1, §2, §3

Molecule	Sensitivity of K. pneumoniae to antisense nucleic acid (growth inhibition, induced vs. uninduced)
B1	−
B6	−
B4	−

Tested on: bacterial strain engineered for expression of an antisense against rplL and rplJ (50S ribosomal subunit proteins)
Test: microbe, parasite or virus in culture
Format: cell-based, E. coli
Conditions: read-out: IC50 (+I)
Experimental: Antibiotics of various chemical classes and modes of action were purchased from Sigma Chemicals (St. Louis, Mo.). Stock solutions were prepared by dissolving each antibiotic in an appropriate aqueous solution based on information provided by the manufacturer. The final working solution of each antibiotic contained no more than 0.2% (w/v) of any organic solvent. To determine their potency against a bacterial strain engineered for expression of an antisense against a proliferation-required gene encoding 50S ribosomal protein, each antibiotic was serially diluted two or three fold in growth medium supplemented with the appropriate antibiotic for maintenance of the anti-sense construct. At least ten dilutions were prepared for each antibiotic. 25 μL aliquots of each dilution were transferred to discrete wells of a 384-well microplate (the assay plate) using a multi-channel pipette. Quadruplicate wells were used for each dilution of an antibiotic under each treatment condition (plus and minus inducer). Each assay plate contained twenty wells for cell growth controls (growth media replacing antibiotic), ten wells for each treatment (plus and minus inducer, in this example IPTG). Assay plates were usually divided into the two treatments: half the plate containing induced cells and an appropriate concentrations of inducer (in this example IPTG) to maintain the state of induction, the other half containing non-induced cells in the absence of IPTG.
Cells for the assay were prepared as follows. Bacterial cells containing a construct, from which expression of antisense nucleic acid against rplL and rplJ, which encode proliferation-required 50S ribosomal subunit proteins, is inducible in the presence of IPTG, were grown into exponential growth (OD600 0.2 to 0.3) and then diluted 1:100 into fresh media containing either 400 μM or 0 μM inducer (IPTG). These cultures were incubated at 37° C. for 2.5 hr. After a 2.5 hr incubation, induced and non-induced cells were respectively diluted into an assay medium at a final OD600 value of 0.0004. The medium contained an appropriate concentration of the antibiotic for the maintenance of the anti-sense construct. In addition, the medium used to dilute induced cells was supplemented with 800 μM IPTG so that addition to the assay plate would result in a final IPTG concentration of 400 μM. Induced and non-induced cell suspensions were dispensed (25 μl/well) into the appropriate wells of the assay plate as discussed previously. The plate was then loaded into a plate reader, incubated at constant temperature, and cell growth was monitored in each well by the measurement of light scattering at 595 nm. Growth was monitored every 5 minutes until the cell culture attained a stationary growth phase. For each concentration of antibiotic, a percentage inhibition of growth was calculated at the time point corresponding to mid-exponential growth for the associated control wells (no antibiotic, plus or minus IPTG). For each antibiotic and condition (plus or minus IPTG), a plot of percent inhibition versus log of antibiotic concentration was generated and the IC50 determined.

Molecule	IC50 [µg/mL]
CC[C@H](C)[C@H](N)C1=N[C@H](C(=O)N[C@@H](CC(C)C)C(=O)N[C@H](CCC(=O)O)C(=O)N[C@H](C(=O)N[C@H]2CCCCNC(=O)[C@H](CC(N)=O)NC(=O)[C@@H](CC(=O)O)NC(=O)[C@H](Cc3cnc[nH]3)NC(=O)[C@@H](Cc3ccccc3)NC(=O)[C@H]([C@@H](C)CC)NC(=O)[C@@H](CCCN)NC2=O)[C@@H](C)CC)CS1 [Bacitracin] ({Ileψ(thiazoline)Cys}-L[dE]IK[dOrn]I[dF]H[dD]N; lactam 4-C)	4670 (≈ 3280 µM)
CO/N=C(\C(=O)N[C@@H]1C(=O)N2C(C(=O)O)=C(COC(C)=O)CS[C@H]12)c1csc(N)n1 [Cefotaxime]	0.0241 (≈ 0.0529 µM)
O=C(N[C@H](CO)[C@H](O)c1ccc([N+](=O)[O-])cc1)C(Cl)Cl [Chloramphenicol]	0.00151 (≈ 0.00467 µM)
CN(C)c1ccc(O)c2c1C[C@H]1C[C@H]3[C@H](N(C)C)C(O)=C(C(N)=O)C(=O)[C@@]3(O)C(O)=C1C2=O [Minocycline]	0.00389 (≈ 0.0085 µM)
CCn1cc(C(=O)O)c(=O)c2ccc(C)nc21 [Nalidixic acid]	6.02 (≈ 25.9 µM)
CN[C@@H]1[C@H](O)[C@H](NC)[C@H]2O[C@@]3(O)C(=O)C[C@@H](C)O[C@H]3O[C@@H]2[C@H]1O [Spectinomycin]	< 0.15
NC[C@H]1O[C@H](O[C@H]2[C@H](O)[C@@H](O[C@H]3O[C@H](CO)[C@@H](O)[C@H](N)[C@H]3O)[C@H](N)C[C@@H]2N)[C@H](N)C[C@@H]1O [Tobramycin]	0.0705 (≈ 0.151 µM)

Reference: patent US20030181408A1, “Genes essential for microbial proliferation and antisense thereto” (priority 1999, published 2003)
